Assay results from publication PMC11404848, “Stenotrophomonas maltophilia uses a c-di-GMP module to sense the mammalian body temperature during infection” (PLOS Pathogens, 2024).

Key:
[1] = molecular target: BtsD^ΔSP (Stenotrophomonas maltophilia CGMCC 1.1788); test: native gel or EMSA; purified BtsD^ΔSP in 2 mM HEPES, 20 mM K2HPO4, pH 7.9, 2 h at 28°C or 37°C, directly or after a gradual 30-min upshift from 0°C; native gel; fewer tetramers at 37°C
[2] = test system: T1, BtsR (Stenotrophomonas maltophilia CGMCC 1.1788), ORF:ddddda88; test: EMSA
T1 sequence: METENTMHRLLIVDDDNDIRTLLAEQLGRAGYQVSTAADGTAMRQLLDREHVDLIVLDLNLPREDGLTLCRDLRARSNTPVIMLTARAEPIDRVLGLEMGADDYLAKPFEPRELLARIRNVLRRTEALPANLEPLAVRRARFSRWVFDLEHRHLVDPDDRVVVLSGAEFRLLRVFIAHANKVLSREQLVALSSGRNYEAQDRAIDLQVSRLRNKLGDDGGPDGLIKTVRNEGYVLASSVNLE

Row | Substance | stoichiometry N [1] | binding [2]
1 | BtsD^ΔSP (enzyme) | 4 | 
2 | CCGGTGAGGTTCGAAAAGCGGGTTCTGGTAGTGCCGGCCGCTGGCCGGCAACCCGACCTTCGCTGATTGCCGGCCAGCGGCCGGCACTACCATGCCGCTCTTGCTCCCTTTCACGCATCCCCCCCCCCCGCCCCTTGACCTCAACCAATGTTGAGGTGCGATAACAGTCTCCCCACGGCCAGCCCTCTGGCCTTCCCCACGGAGATTGCTTCA (double strand) [sod1-3 promoter probe] |  | binds
